T1: IFIH1-WT-Flag (UniProt Q8R5F7 1-1025)
T1 sequence: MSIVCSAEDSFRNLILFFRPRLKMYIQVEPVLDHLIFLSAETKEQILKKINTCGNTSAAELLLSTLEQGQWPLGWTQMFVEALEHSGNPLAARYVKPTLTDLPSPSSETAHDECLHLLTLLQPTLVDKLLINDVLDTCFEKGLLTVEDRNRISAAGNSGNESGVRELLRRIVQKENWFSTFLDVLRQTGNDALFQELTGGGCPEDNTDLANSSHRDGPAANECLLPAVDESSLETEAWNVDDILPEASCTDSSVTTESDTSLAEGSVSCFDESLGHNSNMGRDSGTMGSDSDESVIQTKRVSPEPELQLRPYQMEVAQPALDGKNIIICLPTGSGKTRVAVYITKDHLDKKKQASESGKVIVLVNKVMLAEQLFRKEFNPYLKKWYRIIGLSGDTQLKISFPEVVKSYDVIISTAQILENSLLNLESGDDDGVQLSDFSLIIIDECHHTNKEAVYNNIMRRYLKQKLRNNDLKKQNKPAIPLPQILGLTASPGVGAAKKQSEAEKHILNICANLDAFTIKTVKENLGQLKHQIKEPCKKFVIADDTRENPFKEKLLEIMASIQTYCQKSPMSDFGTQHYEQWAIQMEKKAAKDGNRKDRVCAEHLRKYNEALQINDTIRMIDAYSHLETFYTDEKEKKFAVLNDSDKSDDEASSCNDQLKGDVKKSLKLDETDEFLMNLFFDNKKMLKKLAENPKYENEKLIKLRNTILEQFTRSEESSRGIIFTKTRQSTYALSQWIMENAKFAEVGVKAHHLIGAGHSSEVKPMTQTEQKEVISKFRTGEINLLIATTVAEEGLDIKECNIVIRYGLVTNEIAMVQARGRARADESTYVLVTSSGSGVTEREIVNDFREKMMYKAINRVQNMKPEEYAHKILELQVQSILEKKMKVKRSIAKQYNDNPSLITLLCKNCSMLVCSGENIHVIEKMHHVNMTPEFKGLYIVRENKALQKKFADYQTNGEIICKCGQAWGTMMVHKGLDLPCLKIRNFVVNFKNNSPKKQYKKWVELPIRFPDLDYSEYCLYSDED

B1: IBR1-M2 (ssRNA)
RNA: UGUAUUUUCUCCUUAUAAUCACUCCCUCCCGGGGCAUGUAAUUAAUUUCCUGAUGGAUUACUCACACGGUCUUGAAGAUGCAAUGUCAGCUAUUUAGGCUGUGCUAGGACUCAAUUACAACAACAUAUGCAUUAAGACAGGAACUGGCAAGCCGGGACUACAGCAACUACAGGGCUGGUGCUUCCCAACCGCUGGGCUAUAAUCUAUGAAACUGAGCCGGGAUCCAGCCAAUCAGUUAGCUAGCUCCUCAUAACAGGUCUAACUGGCUCUGGACAGCUAAGGGCUGCGCUGGAAC

Target: T1, IFIH1-WT-Flag
Test: competition; EMSA, 50 pmol cold RNA vs biotin-IBR1-WT; EMSA: 20 mM HEPES pH 7.5, 150 mM NaCl, 1.5 mM MgCl2, 2 mM DTT, 2 mM ADPCP (so in the source), 10 min at room temperature, BisTris native gel
Conditions: protein: recombinant; tags: Flag; His

Binder | binding result
GUUCCAGCGCAGCCCUUA (ssRNA) [IBR1-M3] | no binding
B1 | no binding

Source: paper PMC11420289, “IBR1, a novel endogenous IFIH1‐binding dsRNA, governs IFIH1 activation and M1 macrophage polarisation in ARDS”
